Experimental data as given in publication PMC314469, “Protein Interaction Networks by Proteome Peptide Scanning” (PLoS Biology, 2004).

T1: Boi1 SH3 (BOI1_YEAST), P38041
T1 chain: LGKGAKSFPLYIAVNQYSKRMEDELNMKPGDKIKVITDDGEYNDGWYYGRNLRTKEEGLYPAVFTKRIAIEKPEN

T2: Boi2 SH3 (BOI2_YEAST), P39969
T2 chain: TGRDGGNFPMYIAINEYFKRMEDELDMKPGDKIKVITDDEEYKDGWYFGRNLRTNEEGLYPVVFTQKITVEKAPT

T3: Myo5 SH3 (MYO5_YEAST), Q04439
T3 chain: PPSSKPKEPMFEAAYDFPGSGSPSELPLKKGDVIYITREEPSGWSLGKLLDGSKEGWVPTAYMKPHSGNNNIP

T4: Rvs167 SH3 (RV167_YEAST), P39743
T4 chain: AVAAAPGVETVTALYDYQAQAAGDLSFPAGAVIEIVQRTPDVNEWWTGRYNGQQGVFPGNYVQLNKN

T5: Yfr024 SH3 (LSB3_YEAST), P43603
T5 chain: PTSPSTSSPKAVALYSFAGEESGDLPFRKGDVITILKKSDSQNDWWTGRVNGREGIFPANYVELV

T6: Yhr016c SH3 (YSC84_YEAST), P32793
T6 chain: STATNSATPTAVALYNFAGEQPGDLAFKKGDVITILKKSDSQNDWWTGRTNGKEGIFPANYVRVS


Biological target: T1, Boi1 SH3 (BOI1_YEAST), P38041
Assay: SPOT array

| Binder | normalised SPOT signal, Boehringer light units (BLU); mean over the file's lines of this peptide |
| --- | --- |
| TGYPRYFPQPPVQR [YLL058W 44-57] | 3760 |
| TGKPRKTPRPPFPF [YLR422W 149-162] | 1420 |
| TGESRKAPLIPLLK [YGR099W 447-460] | 8.4 |
| TEVWRKVPMKPIFE [YCR032W 1849-1862] | 163 |
| TEFSRPIPPTPSGF [YPL009C 63-76] | 40.4 |
| TELLRIIPEMPKDL [YLR032W 80-93] | 79.9 |
| TILERLTPLVPNNL [YKL017C 267-280] | 51.5 |
| TEIYKLEPREPQVD [YEL031W 1078-1091] | 132 |
| TGKFRYMPFSPAGT [YPR135W 471-484] | 463 |
| TELLKTLPFYPTPS [YGR110W 91-104] | 57.9 |
| TGGGRIVPGVPPGA [YGR054W 516-529] | 79.3 |

Biological target: T2, Boi2 SH3 (BOI2_YEAST), P39969
Assay: SPOT array

| Binder | normalised SPOT signal, Boehringer light units (BLU); mean over the file's lines of this peptide |
| --- | --- |
| TGYPRYFPQPPVQR [YLL058W 44-57] | 34.1 |
| TGKPRKTPRPPFPF [YLR422W 149-162] | 27.8 |
| TGESRKAPLIPLLK [YGR099W 447-460] | -0 |
| TEVWRKVPMKPIFE [YCR032W 1849-1862] | 33.4 |
| TEFSRPIPPTPSGF [YPL009C 63-76] | 0 |
| TELLRIIPEMPKDL [YLR032W 80-93] | 15.7 |
| TILERLTPLVPNNL [YKL017C 267-280] | -0 |
| TEIYKLEPREPQVD [YEL031W 1078-1091] | 15.6 |
| TGKFRYMPFSPAGT [YPR135W 471-484] | 103 |
| TELLKTLPFYPTPS [YGR110W 91-104] | 0 |
| TGGGRIVPGVPPGA [YGR054W 516-529] | 21.9 |

Biological target: T3, Myo5 SH3 (MYO5_YEAST), Q04439
Assay: SPOT array

| Binder | normalised SPOT signal, Boehringer light units (BLU); mean over the file's lines of this peptide |
| --- | --- |
| TGYPRYFPQPPVQR [YLL058W 44-57] | 5860 |
| TGKPRKTPRPPFPF [YLR422W 149-162] | 1190 |
| TGESRKAPLIPLLK [YGR099W 447-460] | 214 |
| TEVWRKVPMKPIFE [YCR032W 1849-1862] | 243 |
| TEFSRPIPPTPSGF [YPL009C 63-76] | 163 |
| TELLRIIPEMPKDL [YLR032W 80-93] | 228 |
| TILERLTPLVPNNL [YKL017C 267-280] | 249 |
| TEIYKLEPREPQVD [YEL031W 1078-1091] | 29.1 |
| TGKFRYMPFSPAGT [YPR135W 471-484] | 556 |
| TELLKTLPFYPTPS [YGR110W 91-104] | 77.3 |
| TGGGRIVPGVPPGA [YGR054W 516-529] | 118 |

Biological target: T4, Rvs167 SH3 (RV167_YEAST), P39743
Assay: SPOT array

| Binder | normalised SPOT signal, Boehringer light units (BLU); mean over the file's lines of this peptide |
| --- | --- |
| TGYPRYFPQPPVQR [YLL058W 44-57] | 261 |
| TGKPRKTPRPPFPF [YLR422W 149-162] | 3630 |
| TGESRKAPLIPLLK [YGR099W 447-460] | 101 |
| TEVWRKVPMKPIFE [YCR032W 1849-1862] | 523 |
| TEFSRPIPPTPSGF [YPL009C 63-76] | 34400 |
| TELLRIIPEMPKDL [YLR032W 80-93] | 22.9 |
| TILERLTPLVPNNL [YKL017C 267-280] | 198 |
| TEIYKLEPREPQVD [YEL031W 1078-1091] | 98 |
| TGKFRYMPFSPAGT [YPR135W 471-484] | 430 |
| TELLKTLPFYPTPS [YGR110W 91-104] | 57.4 |
| TGGGRIVPGVPPGA [YGR054W 516-529] | 313 |

biological target: Sho1 SH3 (SHO1_YEAST), P40073; assay: SPOT array
Sequence (P40073 295-366): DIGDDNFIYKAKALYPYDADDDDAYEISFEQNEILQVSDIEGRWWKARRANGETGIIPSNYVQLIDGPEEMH

| Binder | normalised SPOT signal, Boehringer light units (BLU); mean over the file's lines of this peptide |
| --- | --- |
| TGYPRYFPQPPVQR [YLL058W 44-57] | 44.3 |
| TGKPRKTPRPPFPF [YLR422W 149-162] | 121 |
| TGESRKAPLIPLLK [YGR099W 447-460] | 23.8 |
| TEVWRKVPMKPIFE [YCR032W 1849-1862] | 59.1 |
| TEFSRPIPPTPSGF [YPL009C 63-76] | 86.7 |
| TELLRIIPEMPKDL [YLR032W 80-93] | 97.2 |
| TILERLTPLVPNNL [YKL017C 267-280] | 39.5 |
| TEIYKLEPREPQVD [YEL031W 1078-1091] | 29 |
| TGKFRYMPFSPAGT [YPR135W 471-484] | 301 |
| TELLKTLPFYPTPS [YGR110W 91-104] | 53.6 |
| TGGGRIVPGVPPGA [YGR054W 516-529] | 72.9 |

Biological target: T5, Yfr024 SH3 (LSB3_YEAST), P43603
Assay: SPOT array

| Binder | normalised SPOT signal, Boehringer light units (BLU); mean over the file's lines of this peptide |
| --- | --- |
| TGYPRYFPQPPVQR [YLL058W 44-57] | 415 |
| TGKPRKTPRPPFPF [YLR422W 149-162] | 6310 |
| TGESRKAPLIPLLK [YGR099W 447-460] | 162 |
| TEVWRKVPMKPIFE [YCR032W 1849-1862] | 4970 |
| TEFSRPIPPTPSGF [YPL009C 63-76] | 13800 |
| TELLRIIPEMPKDL [YLR032W 80-93] | 132 |
| TILERLTPLVPNNL [YKL017C 267-280] | 202 |
| TEIYKLEPREPQVD [YEL031W 1078-1091] | 0 |
| TGKFRYMPFSPAGT [YPR135W 471-484] | 607 |
| TELLKTLPFYPTPS [YGR110W 91-104] | 22.7 |
| TGGGRIVPGVPPGA [YGR054W 516-529] | 132 |

Biological target: T6, Yhr016c SH3 (YSC84_YEAST), P32793
Assay: SPOT array

| Binder | normalised SPOT signal, Boehringer light units (BLU); mean over the file's lines of this peptide |
| --- | --- |
| TGYPRYFPQPPVQR [YLL058W 44-57] | 36.7 |
| TGKPRKTPRPPFPF [YLR422W 149-162] | 1160 |
| TGESRKAPLIPLLK [YGR099W 447-460] | 5.8 |
| TEVWRKVPMKPIFE [YCR032W 1849-1862] | 788 |
| TEFSRPIPPTPSGF [YPL009C 63-76] | 9520 |
| TELLRIIPEMPKDL [YLR032W 80-93] | 19.4 |
| TILERLTPLVPNNL [YKL017C 267-280] | 32.2 |
| TEIYKLEPREPQVD [YEL031W 1078-1091] | 64.7 |
| TGKFRYMPFSPAGT [YPR135W 471-484] | 148 |
| TELLKTLPFYPTPS [YGR110W 91-104] | 10.8 |
| TGGGRIVPGVPPGA [YGR054W 516-529] | 50.4 |
